In publication PMC8187723 one finds Kd data, which are given here for five substances.

The target of the experiment is recombinant human MXRA8-Fc fusion protein (UniProt Q9BRK3). The conditions noted are these: 37 °C; n = 2; parent: est. 19; read off a plot.

For the substance “Ross River virus T48, CPER-recovered wild type, purified virus (E1/E2 envelope glycoproteins on the virion) E1:N141Q”, the Kd – broadly, the equilibrium constant for the complex coming apart – amounted to 61 nM.

For “Ross River virus T48, CPER-recovered wild type, purified virus (E1/E2 envelope glycoproteins on the virion) E1:P226A”, the Kd was determined as 20 nM.

With “Ross River virus T48, CPER-recovered wild type, purified virus (E1/E2 envelope glycoproteins on the virion) E1:S98A”, the Kd was 30 nM.

“Ross River virus T48, CPER-recovered wild type, purified virus (E1/E2 envelope glycoproteins on the virion) E2:A71D”: the Kd was determined as 110 nM.

Consider “Ross River virus T48, CPER-recovered wild type, purified virus (E1/E2 envelope glycoproteins on the virion) E2:H64A”, for which the Kd was found to be 61 nM.
